Reference: patent US20260285997 (published 2026)
Numbering of substitutions follows the chain as printed. “And” between values parts separate entries of the source, which are not always exact repeats. Equal entries are not always repeated. Where two headings read alike, the source gives them in different places.

B1: Parental anti-FLAG (chimeric) (antibody, V domains shown)
VH: QVQLQQSAGELARPGASVKMSCKASGYSFTTYTIHWVKQRPGQGLEWIGYINPSSGYAAYNQNFKDETTLTADKSSSTAYMQLSSLTSEDSAVYYCAREKFYGYDYWGQGTTLTVSS
VL: DVLMTQLPLSLPVSLGDQASISCRSSQSIVHRNGNTYLEWYLLKPGQSPKLLIYKVSNRFSGVPDRFSGSGSGTDFTLKISRVEAEDLGVYYCFQGSHVPYTFGGGTKLEIK
B2: BEAT 2a7 FLAG arm (antibody)
chain: QVQLVQSGAEVKKPGASVKVSCKASGYSFTTYTIHWVRQAPGQGLEWIGYINPSSGYAAYNQKFQGRVTLTADKSTSTAYMELSSLRSEDTAVYYCAREKFYGYDYWGQGTTVTVSSGGGGSGGGGSGGGGSGGGGASDVVMTQSPDSLAVSLGERATINCKSSQSIVHRNGNTYLEWYQQKPGQPPKLLIYKVSNRFSGVPDRFSGSGSGTDFTLTISSLQAEDVAVYYCFQGSHVPYTFGGGTKLEIK
B3: BEAT 2a8 FLAG arm (antibody)
chain: B2 chain
B4: BEAT 1a8 FLAG arm (antibody)
chain: B2 chain
B5: BEAT 1a6 FLAG arm (antibody)
chain: B2 chain
B6: BEAT 1a5 FLAG arm (antibody)
chain: B2 chain
B7: BEAT 1a7 FLAG arm (antibody)
chain: B2 chain
B8: BEAT 2a5 FLAG arm (antibody)
chain: B2 chain
B9: BEAT 2a6 FLAG arm (antibody)
chain: B2 chain
B10: V4 IgG (Anti-FLAG-M2-V4) (antibody, V domains shown)
VH: QVQLVQSGAEVKKPGASVKVSCKASGYSFTTYTIHWVRQAPGQGLEWIGYINPSSGYAAYNQKFQGRVTLTADKSTSTAYMELSSLRSEDTAVYYCAREKFYGYDYWGQGTTVTVSS
VL: DVVMTQSPDSLAVSLGERATINCKSSQSIVHRNGNTYLEWYQQKPGQPPKLLIYKVSNRFSGVPDRFSGSGSGTDFTLTISSLQAEDVAVYYCFQGSHVPYTFGGGTKLEIK
B11: V7 IgG (Anti-FLAG-M2-V7) (antibody, V domains shown)
VH: B10 VH with I34M, I48M, L70M
VL: B10 VL with Q43L
B12: BEAT 1a1 FLAG arm (antibody)
chain: DVVMTQSPDSLAVSLGERATINCKSSQSIVHRNGNTYLEWYQQKPGQPPKLLIYKVSNRFSGVPDRFSGSGSGTDFTLTISSLQAEDVAVYYCFQGSHVPYTFGGGTKLEIKGGGGSGGGGSGGGGSQVQLVQSGAEVKKPGASVKVSCKASGYSFTTYTIHWVRQAPGQGLEWIGYINPSSGYAAYNQKFQGRVTLTADKSTSTAYMELSSLRSEDTAVYYCAREKFYGYDYWGQGTTVTVSS
B13: BEAT 2a2 FLAG arm (antibody)
chain: B12 chain
B14: BEAT 2a3 FLAG arm (antibody)
chain: B12 chain
B15: V4 scFv (anti-FLAG) (antibody)
chain: B12 chain
B16: BEAT 1a4 FLAG arm (antibody)
chain: B12 chain
B17: BEAT 2a4 FLAG arm (antibody)
chain: B12 chain
B18: BEAT 1a2 FLAG arm (antibody)
chain: B12 chain
B19: BEAT 1a3 FLAG arm (antibody)
chain: B12 chain
B20: V7 scFv (anti-FLAG) (antibody)
chain: B12 chain with Q43L, I161M, I175M, L197M

Key:
FLAG tag antigen [1] = molecular target: T1, FLAG tag antigen; test: SPR bivalent
T1 chain: DYKDDDDK

FLAG-BAP [2] = molecular target: T2, FLAG-BAP (FLAG tag fused to bacterial alkaline phosphatase); test: SPR
FLAG-BAP [3] = molecular target: T2, FLAG-BAP; test: SPR; remark: listed apart in the source
FLAG tag antigen [4] = molecular target: T1, FLAG tag antigen; test: SPR

Binder | Kd (FLAG-BAP [2]) | Kd (FLAG-BAP [3]) | further results
B1 |  |  | Kd (FLAG tag antigen [1]): 0.96 nM
B2 | 6.59 nM and 9.46 nM |  | 
B3 | 10.8 nM and 9.09 nM |  | 
B4 |  | 10.1 nM and 8.85 nM | 
B5 |  | 15.5 nM and 27.4 nM | 
B6 |  | 21.9 nM and 15.4 nM | 
B7 |  | 10.9 nM and 13.5 nM and 7.81 nM | 
B8 | 19.5 nM and 18.1 nM |  | 
B9 | 35.1 nM and 32.6 nM |  | 
B10 | 34.3 nM and 20.7 nM | 34.3 nM and 20.7 nM | Kd (FLAG tag antigen [1]): 0.91 nM
B11 | 27.7 nM and 23.2 nM | 23.2 nM and 27.7 nM | Kd (FLAG tag antigen [1]): 1.3 nM
B12 |  | 0.671 nM and 0.798 nM | 
B13 | 51.9 nM and 21.7 nM |  | 
B14 | 5.13 nM and 2.63 nM and 3.04 nM |  | 
B15 |  |  | Kd (FLAG tag antigen [4]): 22 nM
B16 |  | 6.9 nM and 5.04 nM | 
B17 | 13.3 nM and 17 nM |  | 
B18 |  | 1.26 nM and 1.99 nM | 
B19 |  | 1.22 nM and 1.24 nM and 1.65 nM | 
B20 |  |  | Kd (FLAG tag antigen [4]): 15 nM
